Data from article PMC4167235.

Molecular target: secretory phospholipase A2 (sPLA2) from Crotalus durissus terrificus (Crotalus durissus terrificus) (UniProt P62022)
Assay: MALDI-TOF mass spectrometry

secretory phospholipase A2 (sPLA2) from Crotalus durissus terrificus (from UniProt P62022 17-138) (enzyme)
stoichiometry N: 2
